Source: the nanobody polyreactivity screen of Harvey et al. (2022)

Test: yeast display, Sf9 membrane polyspecificity reagent, FACS + sequencing; frameworks hold sequencing errors
Outline: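 In a synthetic yeast display library (Saccharomyces cerevisiae BJ5465), nanobody expression was induced with galactose for 36–48 hours. FACS gates were set low and high (top ~1%) using anti-HA fluorescence for expression and streptavidin fluorescence for binding of the Sf9 membrane reagent. Each polyreactivity label is drawn from the gate of origin.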

Sequence	polyreactivity (PSR sort gate)
QVQLVESGGGLVQAGGSLRLSCAASGRISWGYAMGWYRQAPGKERELVAVINFNGGRTYYADSVKGRFTISRDNAKNTVYLQMNSLKPEDTAVYYCAADSGYEYDYWGQGTQVTVSS	low polyreactivity
QVQLVESGGGLVQAGGSLRLSCAASGFIFAFYDIGWYRQAPGKERELVAAISWGGSTYYADSVKGRFTISRDNAKNTVYLQMNSLKPEDTAVYYCAARLSRSYRYGYWGQGTQVTVSS	high polyreactivity
QVQLVESGGGLVQAGGSLRLSCAASGRTFRYYAIGWYRQAPGKERELVAAISSSGASTYDAESVKGRFTISRDNAKYTVYLQMNSLKPEDTAVYYCRSGILFYSRYDYWGQGTQVTVSS	low polyreactivity
QVQLVESGGGLVQAGGSLRLTCASSGRILVSYAIGWYRQAPGKERELVAAISRSGGSTYYADSVKGRFTISRDIAKNTVYLQMNSLKTEDTAVYYCNVYRFSRYDYWGQGTKVTVSS	high polyreactivity
QVQLVESGGGLVQAGGSLRLSCAPCGSIFPAYTMGWYRRAPGKERELVAAISRRGGSTYYADCVKGRFTISRDNEKNTVYLQMNRLKPEDTAVYDCAKVPDYRFEYWGQGSQVTVSS	high polyreactivity
QVQLVESGGGLVQAGGSLRLSCAASGSIFTNAMGWYRQAPGKERELVASIDANAGDTHYADSVKGRFTISRDNAKKTVYLQMNSLKPEDTAVYYCNADVTERLWTGEDDYWGQGTQVTVSS	low polyreactivity
QVQLVESGGGLVQAGGSLRLSCAASGSIFEPYVMGWYRQAPGKERELVAAIRQTGGSTYYADSVKGRFTISRDNAKNTVYLQMNSLKPEDTAVYYCAAVYLYYSRSDLYDYWGQGTQVTVSS	low polyreactivity
QVQLVESGGGLVQAGGSLRLSCAASGSTFYYYAMGGYRQAPGKERELVAAINDAGGTNYADSVKGRFTISRDNAKNTVYLQMNSLKPEDTAVYYCAADGRIYLTYHEMEYWGQVTQVTVSS	low polyreactivity
QVQLVESGGGLVQAGGSLRLSCAASGRIFRRYAMGWYRQAPGKERELVAAISSGGSTNYADSVKGRFTLSRDNAKNTVYLQMNSLKPEDTAVYYCAARRTATTSRAYYYWGQGTQVTVSS	high polyreactivity
QVQLVESGGGLVQAGGSLRLSCAASGSTFWKYAMGWYRQAPGKERELVASIRSGGSTYYADSVKGRFTISRDNAKNTVYLQMNSLKPEDTAVYYCAAVTHGRYDWGQGTQVTVSS	high polyreactivity
QVQLVESGGGLVQAGGSLRLSCAASGSTFTYNAMGWYRQAPGKERELVASISSGTTTYYADSVKGRFTISRDNAKNTVYLQMNSLKPEDTAVYYCAALVSPDRGYYSYWYIYDYWGQGTQVTVSS	low polyreactivity
QVHLVESGGGLVQAGGRLRLSCAASGSIFPGYAMGWYRQAPGKERELVAAITFSGGSTYYADSLKGRFTISRDNAKNTVYLQMNSLKPEDTAVYYCAAPGWYGGYPSYYEYGYWGQGTQVTVSS	low polyreactivity
QVQLVESGGGLVQPGGSLRLSCAASGITFIPNALGWYRQAPGKEREFVAGITWSGGRTYYADSVKGRFTISRDNATNTVYLQMNSLKPEDTAVYYCAAEPPTYKLLDFWGQGTQVTVSS	low polyreactivity
QVQLVDSGGGLVQAGGSLRLSCAASGTTFYSYAMGWYRQAPGKERELVAAISSSGDSTYYADSVKGRFTISRDNAKNTVYLQMNSLKPEDTAVYYCAARKGELWFPQGGYNYWGQGTQVTVLS	low polyreactivity
QVQLVESGGGLVQAGGSLRLSCAASGSTLGDNGMGWYIQAPGKERELVAAITIGGSTTYADSVKGRFTISRDNAKNTVYLQMNSLKPEDTAVYYCAADQQARDQYSDWTEYDYWGQGTQVNVSS	low polyreactivity
QFQLVESGGGLVQAGGSLRISCAASGSIFRRYAMGWYRQAPWKERELVATISSGTTTNYADSVKGRFTISRDNANNSVYLQLNSLKPEDTSVFYCAAVVYGHIRGPGERKSYWGQGTQVTVSS	high polyreactivity
QVQLVESGGGLVQAGGSLRLSCAASGCTFKYYTMGWYRQAPGKERELGAAINWRGGTTYYADSVKGRFTISRDNAKNTVYLQMNSLKPEDTAVYYSAKVNGPYRGGGYSRFDYWGQGTQVTVST	high polyreactivity
QVQLVESGGGLVQAGGRLRLSCAASGRTFDRMLMGWYRQAPGKERELVAAITSGGRTNYADSVKGRFTISRDNAKNTVYLQMNSLKPEDTAVYYCAKRASALLRHSYDYWGQGTQVTVSS	low polyreactivity
QVQLVESGGGLVQPGGSLRLSCAASGSIFSYNTMGWYRQAPGKERELVAAISGRGGSTNYADSVKGRFTISRDNAKNTVYLQMNSLKPEDTAVYYCAKETWVPYRNGFFPLKGDYWGQGTQVTVSS	low polyreactivity
QVQLVESGGGLVQAGGSLRLSCAASGRTFYYNAMGWYRQAPGKERELVAAISASSGRTYYADSVKGRFTISRDNAKNTVYFPMNSLKPEDTAVYYCANRYGGDYTRGYGYWGQGTQVTVSS	high polyreactivity
QVQLVESGGGLVQAGGSLRLSCAASGFTFTYYALGWYRQAPGKERQLVAAISSRGGRTYYADSVKVRFRISRDNAKNTVYLLMKSLKPEDTAVYYCAARVYKGWPTHYDYLGQGTQVTVSS	high polyreactivity
QVQLGESGGGLVQAGGSLRLSCAASGSIFGSYAMGWYRQATGKERELVAAISYSGGTTYYADSVKGRFTNSRDNAKNTVYLQMNSLKPEDTAVYYCNAPVAYEREYEYWGQGTQVTVSS	low polyreactivity

Sequence	polyreactivity (PSR sort gate)
QVQLVESGGGLVQAGGSLRLSCAASGFTFAFYDMGWYRQAPGKERELVAGISTSDGSTYYADSVKGRFTISRDNAKNTVYLQMNSLKPEDTAVYYCAASYYTYWWGYPVITFDYWGQGTQVTVSS	high polyreactivity
QVQLVESGGGLVQAGGSLRLSCAASGFTFQGYVMGWYRQAPGKERELVARITNDGSTTYADSVKGRFTISRDNAKNTVYLQMNTLKPEDTAVYYCARPYRFWRYYGMYYWGQGTQVTVSS	high polyreactivity
QVQLVESGGGLVQAGGSLRLSCAASGSTFSVYAMGWYRQAPGKERELVATIRGRGGSTSYADSVKGRFTISRDNAKNTVYLQMNSLKPEDTAVYYCAARVVRDWASKRIILALSNYDYWGQGTQVTVSS	high polyreactivity
QVQLVESGGGLVQAGGSLRLSCAASGRIFYGNAMGWYRQSPGKERELVASITSSGSTKYADSVKGRFTISRDNAKNTVYLQMNSLKPEDTAVYYCAASSTKRYDTYAGYDYWGQGTQVTVSS	low polyreactivity
QVQLVESGGGLVQAGGSLRLSCAASGRIFFTNAMGWYSQAPGKEREFVAAISKSGARTYYADSVKGRFTISRDNAKNTVYLQMISLKPEDTAVYYCAADVSVYGYYYWGQGTQVTVSS	high polyreactivity
QVQLVESGGGLVQAGGSLRLSCAASGNIFPYYAMGWYRQAPGKERELVASITWSGGRTYYADSVKGRFTISRDNAKNTVYLQMNSLKPEDTAVYYCAKEHHRTGQGRDYDYWGQGTQVTVSS	low polyreactivity
QLQLVESGRGLVQAGGSLRLSCAASGRTFYFYGMGWYRQAPGKERELVASITRGTSTTYADSVKGRFTISRDNAKNTVYFQMNSLKPEDTAVYYCAARAWNYLTSYYIGGYEYWGQGTQVTVSS	low polyreactivity
QVQLVESVGGLVQAGGSLRLSCAASGSILQHYAMGWYRQAPGKETELVASISWTGGSTYYADSVKGRFTISRDNAKNTVYLQMNCLKPEDTAVYYCAARRYRYYSRGSWGQGTQVTVSS	high polyreactivity
QVQLVESGGGLVQAGGSLRLSCAASGRTFGYNAMGWYRQAPGKERELVATISWGCGSTYYADSLKWRFTISPDNAKNTVYLQMNSLKPEDTAVYYCNKVHYGRLHSYSRAIYGEDYWGQGTQVTVSS	high polyreactivity
QVQLVESGGGLVQAGGSLRLSCAASGSTLSYYAMGWYRQAPGKEREWVAAISLSVGSTYYADSVKGRFTISRDNAKNTVYLQMNSLKPEETAVYYCAADDFYSGPFRGDYWGQGTQVTVSS	low polyreactivity
QVQLVESGGGLVQAGGSLRLSCAASGSTFPYYAMGWYRQAPGKERELVAAITSSASTYYADSVKGRFTISRDNAKNTVYLQLNSPKPEDTADYYCPVRSPYRLSPWRVGYWGQGTQVTVSS	high polyreactivity
QVQLVESGGGLVQAGGSLRLSCAASGFIFWLYAMGRYRQAPGKERELVAAISNGGSTNYADSVKGRFTISRDNAKNTVYLQMNSLKPEDTAVYYCAAKFPRRFYWYDYWGQGTQVTVSS	high polyreactivity
QVQLVESGGGLVQAGGSLRLSCAASGSIFWGNAMGWYRQAPGKERELVATISWSAGSTYYADSVKGRFTISRDNAMNTVYLQMNSLKPDDTAVYYCATDVRHSTLYYYWGQGTQVTVSS	low polyreactivity
QVQLVDSGGALVQAGGSLRISCAASGYIFSYKAMGWYRQAPGKERELVAAITSGGSTNYADSVKGRFTISRDNAKNTVYLQMKSLKPEDTAVYYCAAERGDTAYRKYDYWGQGTQVTVSS	low polyreactivity
QVQLVESVGGLVQAGGSLRLSCAASGFTFGYYAMGWYRQAPGKERELVASISRSGGSTNYADSVKGRFTISRDNAKNTVYLQMNSLKPEDTAVYYCAKPLWDPKYDYWGQGTQVTVSS	high polyreactivity
QVQLVESGGGLDQAGVRLRLSCAASGRIVSSYAMGWYRQAPGKERELVAAIRRGGGSTSYADSVKGRFTISRDNAKKTVYLQMNSLKPEDTAVYYCAADSPRGQVHYIGGYWGQGTQVTVSS	low polyreactivity
QVQLVESGGGLVQAGRSLRLSCAASGRIFNYYSMGWYRQAPGKERELVAAISSGGSTYYADSVKGRFTISRDYAKNTVYLQMNSLKPEDTAVYYCAAAYGDYGYWGQGTLVTVSS	high polyreactivity
QVQLVESGGGLVQAGGSLRLSCAASGRTFYNYAMGWYRQAPGKEREFVAAISSSGGSTYYADSVKGRFTISRDNAKNTVYLQMNSLKPEDTAVYYCAAYYISFDYWGQGTKVTVSS	high polyreactivity
QVQHVESGGGLVQAGGSLRISCAASGFISTGNAMGWSRQAPGKERELVAAITTGGSTYYADSVKGRFTISRDNAKNTVYLQMNSLKPEDTAVYYCNAVYVWWDGWGLYYWGQGTQGTVSS	low polyreactivity
QVQLVESGGGLVQAGGSLRLSCAASGRTFDIYAMGWYRQAPGKERELVAAISSGGSTYYADSVKGRFTISRDNAKNTVYLQINSLKPEDTAVYYCAVRWYDQVSRRGIGYYWGQGSQVTVSS	low polyreactivity
QVQLVESGGGLVQAGGSLRLSCAASGSTFDYYTMGWYRQAPGKERELVAAITSGGSTYYADSVKGRFTISRDNAKNTVFLQMNSLKPEDTAVYYCAAGYIWFRKFQFDYWGQGTQVTVSS	high polyreactivity
